Data as given in the nanobody polyreactivity screen of Harvey et al. (2022).

Assay: yeast display, Sf9 membrane polyspecificity reagent, FACS + sequencing; frameworks hold sequencing errors
In short: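 Galactose-induced (36–48 hours) yeast carrying a synthetic nanobody display library were exposed to 10% biotinylated, detergent-solubilized Sf9 membrane reagent at 4 °C for 1 hour. FACS followed streptavidin microbead enrichment, using low and high (top ~1%) gates for expression (anti-HA) and reagent binding (streptavidin). Colony PCR, MiSeq 2 × 250 sequencing and CDR-length filtering followed. Labels for polyreactivity reflect the gate of origin.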

Sequence	polyreactivity (PSR sort gate)
QVQLVESGGGLVQAGGSLRLSCAASGIIFTKYFMGWYRQAPGKERELVAAINTDGGSTRYADSVKGRFTISRDNAKNTVYLQMNSLKPEDTAVYYCAAVSSRRPGYEYYYWGQGTQVTVSS	high polyreactivity
QVQLVESGGGLVQAGGSLRLSCAASGIIFTPNAMGWSRQAPGKERELVAAINYGGDTTYYADSVKGRFTISRDNAKNTVYFQMNSLKPADTAVYYCATDGTTPTPRDAFVRFDHWGQGTQVTVSS	low polyreactivity
QVQLVESGGGLVQAGGSLRLSCAASGIIFTRNAKGWSRQAPGKERELVAAISRSGGRTSYADSVKGRFTISRDNAKNTVYLHMNSLKPEDTEVYYCYARTTSGWGQGTQVTVSS	high polyreactivity
QVQLVESGGGLVQAGGSLRLSCAASGIIFTRNAMGWYRQATGKERELVAAITYGGSTYYADSVKGRFTISRDNAKNTVYLQMNSLKPEDTAVYYCAVDAYRYRVHSYGKKYGYNYWGQGTQVTVSS	high polyreactivity
QVQLVESGGGLVQAGGSLRLSCAASGIIFTSNTMGWYRQAPGKEREFVASINWNGSSTNADSVKGRFTISRDNAKNTVYLQMNSLKPEDTAVYYCNADYNRNSVQFSLYDYWGQGTQVTVSS	low polyreactivity
QVQLVESGGGLVQAGGSLRLSCAASGIIFTVYAMGWDRQAPGKERELVAAISFSTGRTYYADSVKGRFTISRDNAKNTVYLQMNSLKPEDTAVYYCAASAGHTFSKPFDRGRYGYWGQGTQVTVSS	high polyreactivity
QVQLVESGGGLVQAGGSLRLSCAASGIIFTVYAMGWYRQAPGKERELVAAITWSGGSTYYADSVKGRFTISRDNAKNTVYLQMNSLKPEDTAVYYCNKVGRVWDVETDGDYDYWGQGTQVTVSS	low polyreactivity
QVQLVESGGGLVQAGGSLRLSCAASGIIFTVYAMGWYRQAPGKERELVASITSNGGSTYYADSVKGRFTISRDNAKNTVYLQMNSLKPEDTAVYYCAADSYYDPVDYNYWGQGTQVTVSS	low polyreactivity
QVQLVESGGGLVQAGGSLRLSCAASGIIFTYYAMGWDRQAPGKERELVARISSSGGRTYYADSVKGRFTISRDNAKNTVYLQMNSLKPEDTAVYYCAAAIVSYGRNDYWGQGTQVTVSS	high polyreactivity
QVQLVESGGGLVQAGGSLRLSCAASGIIFTYYAMGWYRQAPGKERELVAAISDSGGGTYYADSVKGRFTISRDNAKNTVYLQMNSLKPEDTAVYYCAASGAWWDDYWGQGTQVTVSS	high polyreactivity
QVQLVESGGGLVQAGGSLRLSCAASGIIFTYYAMGWYRQAPGKERELVAAISVSGSSTYYADSVKARFTISRDYAKNTVYLQMNRLKPEDTAVYYCAVKQGFYSRALKLYYWGQGTQVTVSS	high polyreactivity
QVQLVESGGGLVQAGGSLRLSCAASGIIFTYYAMGWYRQAPGKERELVAAISYRGGSTYYADSVKGRFTISRDNAKNTVYLQMNSLKPEDTAVYYCNARYFRHYDYWGQGTQVTVSS	high polyreactivity
QVQLVESGGGLVQAGGSLRLSCAASGIIFTYYAMGWYRQAPGKERELVASISSSGTSTYYADSVKGRFTISRDNAKNTVYLQMNSLKPEDTAVYYCAADWTGSNGVDYWGQGTQVTVSS	low polyreactivity
QVQLVESGGGLVQAGGSLRLSCAASGIIFVDYVMGWYRQAPGKERELVAAITYTGGSTYYADSVKGRFTISRDNAKNTVYLQMNSLKPEDTAVYYCAARRNDRFFPAYYYWGQGTQVTVSS	high polyreactivity
QVQLVESGGGLVQAGGSLRLSCAASGIIFVFNAMGWYRQAPGKERELVAVISTSGDSTYYADSVKGRFTISRDNAKNTVYLQMNSLKPEDTAVYYCAADQRVTYRRGRAYDKYYYWGQGTQVTVSS	low polyreactivity
QVQLVESGGGLVQAGGSLRLSCAASGIIFVGNAMGWYRQAPGKERELVASINSGGSTYYADSVKGRFTISRDNAKNTVYLPMNSLKPEDTAVYYCAVEEARYYYDDYDYWGQGTQVTVSS	low polyreactivity
QVQLVESGGGLVQAGGSLRLSCAASGIIFVINAMGWYRQAPGKERELVATITGSGTTNYADSVKGRFTISRDNAKNTVYLHMNSLKPEDTAVYYCARDDTEYARTGAYDYWGQGTQVTVSS	low polyreactivity
QVQLVESGGGLVQAGGSLRLSCAASGIIFVLYTMGWYIQAPGKERELVATINWGGGNTYYADSVKGRFTISRDNAKNTVYFQMNSLKPEDTAVYYCAAAYTWYGYSQAYYYWGQGTQVTVSS	low polyreactivity
QVQLVESGGGLVQAGGSLRLSCAASGIIFVTNDMGWYRQAPGKERELVATITWSGGSTYYADSVKGRFTISRDNAKNTVYLQMNSLKPEDSAVYYCAAESRYTWIHSRDYWGQGTQVTVSS	low polyreactivity
QVQLVESGGGLVQAGGSLRLSCAASGIIFVVYDMGWYRQAPGKERELVAAINWSGGSTYYADSVKGRFTISRDNAKNTVYLQMNSLKPEDTAVYYCAAESFSDGSPYNYWGQGTQVTVSS	low polyreactivity

Sequence	polyreactivity (PSR sort gate)
QVQLVESGGGLVQAGGSLRLSCAASGIIFVYNAMGWYRPAPGKARELVAAINWRGDGTYYADSVKGRFTISRDNAKNTVYLQMNCLKPEDTAVYYCNAVRFRPNSHYRPVGYDYWGQGTQVTVSS	low polyreactivity
QVQLVESGGGLVQAGGSLRLSCAASGIIFVYYAMGWYRQAPGKERELVAAISTGGTRTYYADSVKGRFTISRDNAKNTVYLQMNSLKPEDTAVYYCNARGRYRKSERRAFDYWGQGTQVTVSS	high polyreactivity
QVQLVESGGGLVQAGGSLRLSCAASGIIFVYYAMGWYRQAPGKERELVAAISTRGGSTYYADSVKGRFTISRDNAKNTVYLQMNSLKPEDTAVYYCAATYVYRYVPRIPSEAYDYWGQGTQVTVSS	high polyreactivity
QVQLVESGGGLVQAGGSLRLSCAASGIIFWYYAMGWYRQAPGKDRELVARITTAGITNYADSVKGRFTISRDNAKNTVYLQMNSLKPEDTAVYYCAADTYWHYRGPGYDYWGQGTQVTVAS	low polyreactivity
QVQLVESGGGLVQAGGSLRLSCAASGIIFYDYAMGGYREAPGKERELVATITRGGGTKYADSVKGRFTISRDNAKNTVYLQMNSLKPEDTAVYYCAADSHGVYEGDYCGQGTQVTVSS	low polyreactivity
QVQLVESGGGLVQAGGSLRLSCAASGIIFYDYAMGWYRPAPGKERELVAAINYSGGSTYYADSVKGRFTISRDNAKNTVYLQMNSLKPEDTAVYYCAADNAVWEYDYWGQGSQVTVSS	low polyreactivity
QVQLVESGGGLVQAGGSLRLSCAASGIIFYDYAMGWYRQAPGKERELVAAISGSGGSTYYADSVKGRFTISRDNAKNTVYLQMNSLKPEDTAVYYCAARFTRQMYYWGQGTQVTVSS	high polyreactivity
QVQLVESGGGLVQAGGSLRLSCAASGIIFYDYAMGWYRQAPGKERELVAAISTDAGSTYYADSVKGRFTISRDNAKNTVYLQMNSLKPEDTAVYYCNADEHSYSVSWDYEYDYWGQGTQVTVSS	high polyreactivity
QVQLVESGGGLVQAGGSLRLSCAASGIIFYDYAMGWYRQAPGKERELVAAITSGGSTNYADSVKGRFTISRDNAKNTVYLQMNSLKPEDTAVYYCAATYWSWISLRFYWGQGTQVTVSS	low polyreactivity
QVQLVESGGGLVQAGGSLRLSCAASGIIFYDYAMGWYRQAPGKERELVAAITSSGGSTYYADSVKGRFTISRDNAKNTVYLQMNRLKPEDTAVYYCAAATRGSGRRYDYWGQGTQVTVSS	high polyreactivity
QVQLVESGGGLVQAGGSLRLSCAASGIIFYFYARGWYRQAPGKETELVAANSRGGSTKYADSVKGRFTISRDNAKNTVYLLMYSLKPEDTAFYYCNARVRGVRQGIMDYWGQGTQVSVSS	high polyreactivity
QVQLVESGGGLVQAGGSLRLSCAASGIIFYGNAMGWYRPAPGKERELVAAISWTTDSTYADSVKGRFTISRDNAKNTVYLQMNSLKPEDTAVYYCNARNGSEFLANDLFTHEYDYWGQGTQVTVSS	low polyreactivity
QVQLVESGGGLVQAGGSLRLSCAASGIIFYGNAMGWYRQAPGKERELVAAISWSGSSTYYADSVKGRFTISRDNAKNTVYLQMNSLKPEDPAVYYCNKATSSVRYLKYYYWGQGTQVTVSS	high polyreactivity
QVQLVESGGGLVQAGGSLRLSCAASGIIFYGYAMGWYRQAPGKERELVAAISRSGGSTYYADSVKGRFTISRDNAKNTVYLQMNSLKPEDTAVYYCAASGVTYDYWGQGTQVTVSS	high polyreactivity
QVQLVESGGGLVQAGGSLRLSCAASGIIFYGYDMGWYRQAPGKERELVAAITWSGGSTYYADSVKGRFTISRDNAKNTVYLQMNSLKPEDTAVYYCNADLDSGYGSYDYWGQGTQVTVSS	low polyreactivity
QVQLVESGGGLVQAGGSLRLSCAASGIIFYHYALGWYRPAPGKERELVAAISRRGGTTYYADSVKGRFTISRDNAKNTVYLQMNSLKPEDTAVYYCAADYGSYGLYRGYYYWGQGTQVTVSS	high polyreactivity
QVQLVESGGGLVQAGGSLRLSCAASGIIFYIYAMGWYRQAPGKERELVAGISWRGGSTSYADSVKGRFTISRDNAKNTVYLQMNSLKPEDTAVYYCAAEVYSWDGYDYWGQGTQVTVSS	low polyreactivity
QVQLVESGGGLVQAGGSLRLSCAASGIIFYIYAMGWYRQAPGKERELVATISNDGGSTYYADSVKGRFTISRDNAKNTVYLQMNSLKPEDTAFFYCNADFADDKNYLFESELEYDYWGQGTQVTVSS	low polyreactivity
QVQLVESGGGLVQAGGSLRLSCAASGIIFYKYSMGWYRQAPGKERELVAAITSGGGRTYYADSVKGRFTISRDNAKITVDLQMNSLKPEDTAVYYCAATRPATYAAYDYWGQGTQVTVSS	high polyreactivity
QVQLVESGGGLVQAGGSLRLSCAASGIIFYLYAMGWYIQAPGKERELVAAISWGGGTTYYADSVKGRFTISRDNAKNTVYLQMNSLKPEDTAVYYCAAETEYYSYRFDYWGQGTQVTVSS	high polyreactivity
